The source of these data is paper PMC6308234 (Scientific Reports, 2018).

In assay [1] the target is T1, DENV-4 nonstructural protein 1 (NS1), recombinant (Dengue virus 4, strain …, UniProt P09866).
T1 construct: also called DENV-4 NS1; NS1 from DENV-4; source: bought: Native Antigen Company (recombinant)
The experiment in a line: SPR. The settings on record: both partners purified.

Assay [2] has as its target T2, DENV-1 nonstructural protein 1 (NS1), recombinant (Dengue virus 1, strain Nauru/West …, UniProt P17763).
T2 construct: also called DENV-1 NS1; NS1 from DENV-1; source: bought: Native Antigen Company (recombinant)
Put plainly: SPR. The settings on record: both partners purified.

In assay [3] the target is T3, DENV-2 nonstructural protein 1 (NS1), recombinant (Dengue virus 2, strain …, UniProt P29990).
T3 construct: also called DENV-2 NS1; NS1 from DENV-2; source: bought: Native Antigen Company (recombinant)
Put plainly: SPR. The settings on record: both partners purified.

Assay [4] concerns the target T4, DENV-3 nonstructural protein 1 (NS1), recombinant (Dengue virus 3, strain Sri …, UniProt Q6YMS4).
T4 construct: also called DENV-3 NS1; NS1 from DENV-3; source: bought: Native Antigen Company (recombinant)
The experiment in a line: SPR. The settings on record: both partners purified.

The target of assay [5] is T5, DENV-1 nonstructural protein 1 (NS1), recombinant (dengue virus serotype 1 (DENV-1)).
T5 chain: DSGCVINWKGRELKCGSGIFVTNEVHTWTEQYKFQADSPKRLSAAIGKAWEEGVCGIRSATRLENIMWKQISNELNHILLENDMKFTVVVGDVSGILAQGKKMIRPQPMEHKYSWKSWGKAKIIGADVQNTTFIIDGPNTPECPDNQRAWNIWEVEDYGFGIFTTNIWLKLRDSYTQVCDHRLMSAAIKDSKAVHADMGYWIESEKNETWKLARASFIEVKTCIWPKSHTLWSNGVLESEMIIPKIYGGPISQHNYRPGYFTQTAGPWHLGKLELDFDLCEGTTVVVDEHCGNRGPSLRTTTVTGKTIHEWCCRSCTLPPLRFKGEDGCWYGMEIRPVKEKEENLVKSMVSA
Put plainly: SPR; sdAb immobilized. A general note: SPR reads the build-up and loss of mass on a sensor chip optically.

Assay [6] concerns the target T6, DENV-2 nonstructural protein 1 (NS1), recombinant (dengue virus serotype 2 (DENV-2)).
T6 chain: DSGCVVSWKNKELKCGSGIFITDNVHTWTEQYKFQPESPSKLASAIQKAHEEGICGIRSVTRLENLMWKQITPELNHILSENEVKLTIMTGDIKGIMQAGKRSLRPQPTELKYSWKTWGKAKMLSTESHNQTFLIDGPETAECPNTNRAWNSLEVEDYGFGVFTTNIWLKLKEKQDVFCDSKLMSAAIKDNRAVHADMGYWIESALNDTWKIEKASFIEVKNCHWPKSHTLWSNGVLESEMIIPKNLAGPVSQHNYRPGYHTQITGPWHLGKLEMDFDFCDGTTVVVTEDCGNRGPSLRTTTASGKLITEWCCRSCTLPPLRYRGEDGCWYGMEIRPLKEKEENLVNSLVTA
Put plainly: SPR; sdAb immobilized.

Assay [7] addresses T1, DENV-4 nonstructural protein 1 (NS1), …. Put plainly: SPR. The settings on record: both partners purified. This is another data set of the same source.
Assay [8] has as its target T2, DENV-1 nonstructural protein 1 (NS1), …. Put plainly: SPR. The settings on record: both partners purified. The source holds these as a separate data set.
The target of assay [9] is T3, DENV-2 nonstructural protein 1 (NS1), …. Put plainly: SPR. The settings on record: both partners purified. This is another data set of the same source.
The target of assay [10] is T4, DENV-3 nonstructural protein 1 (NS1), …. Put plainly: SPR. The settings on record: both partners purified. The source holds these as a separate data set.

Residue numbers refer to the chain shown, from its start.

B1: sdAb DD7 (VHH)
VHH: EVQLVQSGGGSVQAGGSLRLSCAHSSITVPDYTIGWFRRAPGKGGEEVSLISMHGGRSWYAGSVKGRFAISRDSVKNTVYLQMNNLKPEDTDIYYCGGTTFGLAAAPNEYDSWGQGSQVTVSS
notes: source: E. coli Turner (DE3), pET22b, periplasmic, purified (Ni-Sepharose, SEC)
As to B1, the Kd in assay [1] stood at 1.1 nM; in assay [2], 1.7 nM; in assay [3], 1.5 nM; in [4], 2.4 nM; in assay [7] it was 2.4 nM; in assay [8] it was 5.4 nM. The Kd turned out to be 20.3 nM in [9] and 7 nM in [10]. Moreover, the koff is 0.000423 s⁻¹ in [5] and 0.000435 s⁻¹ in [6].

B2: sdAb DD6 (VHH)
VHH: B1 VHH with V5Q, Q6A, F37Y, S58T
notes: as for B1
On to B2, for which the dissociation constant (Kd) came to 2.5 nM in assay [7], 7.6 nM in assay [8], 2 nM in [9] and 1.1 nM in [10].

B3: sdAb DB5 (VHH)
VHH: DVQLQASGGGLVQDGGSLRLSCAASGLGFRIHSMGWYRQAPGKARDLVAVITDSGQTNYAPSVKGRFTISRESAGNTVYLQMNSLKPDDTAVYYCAVTTWDPHSYWGQGTQVTVSS
notes: as for B1
For B3, the values for the Kd in [4] and in [10] were 1.6 nM and 4.4 nM, respectively. In addition, the binding result in assay [7], in [8] and in assay [9] was “no binding (tested: typically up to 300 nM)” in each case.

B4: sdAb DD1 (VHH)
VHH: EVQLQASGGGLVQAGGSLRVSCAATGIAFASYAVAWYRQAPGKQREWVATVGGLGGTKYVDSVKGRFTISRDNAKNAVTLQMNSLKPEDTAVYYCAAVEWDDGHYYWDTWGQGTRVTVSA
notes: as for B1
On to B4, for which the Kd in assay [1] worked out at 0.6 nM; in [2] it was 2.2 nM; in assay [3] it was 2.3 nM; in assay [4], 17.7 nM; in [7], 7.8 nM; in [8], 28.5 nM. Further, the dissociation constant (Kd) was found to be 15 nM in assay [9] and 85.8 nM in assay [10]. Moreover, the off-rate constant (koff) in assay [5] stood at 0.000206 s⁻¹; in assay [6], 0.000182 s⁻¹.

B5: sdAb DH4 (VHH)
VHH: B4 VHH with E1D, L11V, K64R
notes: as for B1
On to B5, for which the Kd came to 8.5 nM in [7], 10.3 nM in assay [8], 8.5 nM in assay [9] and 23.8 nM in assay [10].

As a reminder, the Kd is the concentration at which binding is half-saturated. The koff is the first-order rate constant of dissociation.
